# Results taken from IntAct's records for PubMed 16061658.
# B1: Receptor tyrosine-protein kinase erbB-4 (Mus musculus), Q61527 (parent)
# chain: MKLATGLWVWGSLLMAAGTVQPSASQSVCAGTENKLSSLSDLEQQYRALRKYYENCEVVMGNLEITSIEHNRDLSFLRSIREVTGYVLVALNQFRYLPLENLRIIRGTKLYEDRYALAIFLNYRKDGNFGLQELGLKNLTEILNGGVYVDQNKFLCYADTIHWQDIVRNPWPSNMTLVSTNGSSGCGRCHKSCTGRCWGPTENHCQTLTRTVCAEQCDGRCYGPYVSDCCHRECAGGCSGPKDTDCFACMNFNDSGACVTQCPQTFVYNPTTFQLEHNFNAKYTYGAFCVKKCPHNFVVDSSSCVRACPSSKMEVEENGIKMCKPCTDICPKACDGIGTGSLMSAQTVDSSNIDKFINCTKINGNLIFLVTGIHGDPYNAIDAIDPEKLNVFRTVREITGFLNIQSWPPNMTDFSVFSNLVTIGGRVLYSGLSLLILKQQGITSLQFQSLKEISAGNIYITDNSNLCYYHTINWTTLFSTINQRIVIRDNRRAENCTAEGMVCNHLCSNDGCWGPGPDQCLSCRRFSRGKICIESCNLYDGEFREFENGSICVECDSQCEKMEDGLLTCHGPGPDNCTKCSHFKDGPNCVEKCPDGLQGANSFIFKYADQDRECHPCHPNCTQGCNGPTSHDCIYYPWTGHSTLPQHARTPLIAAGVIGGLFILVIMALTFAVYVRRKSIKKKRALRRFLETELVEPLTPSGTAPNQAQLRILKETELKRVKVLGSGAFGTVYKGIWVPEGETVKIPVAIKILNETTGPKANVEFMDEALIMASMDHPHLVRLLGVCLSPTIQLVTQLMPHGCLLDYVHEHKDNIGSQLLLNWCVQIAKGMMYLEERRLVHRDLAARNVLVKSPNHVKITDFGLARLLEGDEKEYNADGGKMPIKWMALECIHYRKFTHQSDVWSYGVTIWELMTFGGKPYDGIPTREIPDLLEKGERLPQPPICTIDVYMVMVKCWMIDADSRPKFKELAAEFSRMARDPQRYLVIQGDDRMKLPSPNDSKFFQNLLDEEDLEDMMDAEEYLVPQAFNIPPPIYTSRTRIDSNRSEIGHSPPPAYTPMSGNQFVYQDGGFATQQGMPMPYRATTSTIPEAPVAQGATAEMFDDSCCNGTLRKPVAPHVQEDSSTQRYSADPTVFAPERNPRGELDEEGYMTPMHDKPKQEYLNPVEENPFVSRRKNGDLQALDNPEYHSASSGPPKAEDEYVNEPLYLNTFANALGSAEYMKNSVLSVPEKAKKAFDNPDYWNHSLPPRSTLQHPDYLQEYSTKYFYKQNGRIRPIVAENPEYLSEFSLKPGTMLPPPPYRHRNTVV
# partner: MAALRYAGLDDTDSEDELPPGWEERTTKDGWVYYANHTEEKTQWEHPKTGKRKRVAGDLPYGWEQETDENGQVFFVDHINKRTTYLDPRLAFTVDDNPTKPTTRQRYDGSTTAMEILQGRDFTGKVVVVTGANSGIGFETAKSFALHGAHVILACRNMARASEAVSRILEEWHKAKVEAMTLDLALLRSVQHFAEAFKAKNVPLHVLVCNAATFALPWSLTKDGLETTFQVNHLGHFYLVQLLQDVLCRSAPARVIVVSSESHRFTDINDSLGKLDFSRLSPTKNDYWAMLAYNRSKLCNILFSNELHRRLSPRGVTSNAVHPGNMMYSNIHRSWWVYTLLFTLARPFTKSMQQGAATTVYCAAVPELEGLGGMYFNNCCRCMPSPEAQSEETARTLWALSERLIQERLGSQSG
# B2: WW domain-containing oxidoreductase (Homo sapiens), Q9NZC7 (parent)
# chain: B1 partner
# Variants of: B1
# Details: with wwox_human WWOX, Q9NZC7
row,Variant,effect of a mutation on the interaction
1,Y1035A;Y1301A,disrupting interaction

# Variants of: B2
# Details: with erbb4_mouse Erbb4, Q61527
row,Variant,effect of a mutation on the interaction
1,MAALRYAGLDDTDSEDELPPGWEERTTKDGWVRYANHTEEKTQWEHPKTGKRKRVAGDLPYGWEQETDENGQVFFVDHINKRTTYLDPRLAFTVDDNPTKPTTRQRYDGSTTAMEILQGRDFTGKVVVVTGANSGIGFETAKSFALHGAHVILACRNMARASEAVSRILEEWHKAKVEAMTLDLALLRSVQHFAEAFKAKNVPLHVLVCNAATFALPWSLTKDGLETTFQVNHLGHFYLVQLLQDVLCRSAPARVIVVSSESHRFTDINDSLGKLDFSRLSPTKNDYWAMLAYNRSKLCNILFSNELHRRLSPRGVTSNAVHPGNMMYSNIHRSWWVYTLLFTLARPFTKSMQQGAATTVYCAAVPELEGLGGMYFNNCCRCMPSPEAQSEETARTLWALSERLIQERLGSQSG [Y33R],disrupting interaction
